From the Immune Epitope Database (IEDB)
Values belong to the sequence of their own block, whether it stands above or below them.

Tests used:
HLA-A*80:01 = test: IEDB peptide-MHC binding, purified MHC/direct/fluorescence; filed as Kd, often an IC50 or EC50 that approximates it; ≥ and ≤ were set here for values at or beyond the usual limits of such assays
HLA-A*01:01 = test: IEDB peptide-MHC binding, purified MHC/competitive/fluorescence; filed as Kd, often an IC50 or EC50 that approximates it; ≥ and ≤ were set here for values at or beyond the usual limits of such assays
HLA-A*29:02 = test: as above
HLA-B*58:01 = test: as above
HLA-C*03:03 = test: IEDB peptide-MHC binding, purified MHC/direct/fluorescence; filed as Kd, often an IC50 or EC50 that approximates it; ≥ and ≤ were set here for values at or beyond the usual limits of such assays
HLA-C*05:01 = test: as above; conditions: source organism: Listeria monocytogenes serotype 4b str. H7858
HLA-C*12:03 = test: as above
HLA-B*15:02 = test: IEDB peptide-MHC binding, purified MHC/competitive/fluorescence; filed as Kd, often an IC50 or EC50 that approximates it; ≥ and ≤ were set here for values at or beyond the usual limits of such assays
HLA-A*02:01 [1] = test: as above
HLA-A*02:03 = test: as above
HLA-A*02:11 = test: as above
HLA-A*02:12 = test: as above
HLA-A*02:16 = test: as above
HLA-A*02:19 = test: as above
HLA-A*03:01 = test: as above
HLA-A*23:01 = test: as above
HLA-A*24:03 = test: as above
HLA-A*26:01 = test: as above
HLA-A*68:02 = test: as above
HLA-A*69:01 = test: as above
HLA-B*15:01 [2] = test: as above
HLA-B*15:17 = test: as above
HLA-B*18:01 = test: as above
HLA-B*27:03 = test: as above
HLA-B*39:01 = test: as above
HLA-B*46:01 = test: as above
HLA-B*51:01 = test: as above
HLA-B*57:01 = test: as above
HLA-A*31:01 = test: as above; conditions: source organism: Entamoeba histolytica HM-1:IMSS
HLA-C*15:02 = test: IEDB peptide-MHC binding, purified MHC/direct/fluorescence; filed as Kd, often an IC50 or EC50 that approximates it; ≥ and ≤ were set here for values at or beyond the usual limits of such assays
HLA-B*07:02 [3] = test: IEDB peptide-MHC binding, purified MHC/competitive/fluorescence; filed as Kd, often an IC50 or EC50 that approximates it; ≥ and ≤ were set here for values at or beyond the usual limits of such assays
HLA-C*07:02 = test: IEDB peptide-MHC binding, purified MHC/direct/fluorescence; filed as Kd, often an IC50 or EC50 that approximates it; ≥ and ≤ were set here for values at or beyond the usual limits of such assays
HLA-C*14:02 = test: as above; conditions: source organism: Homo sapiens
HLA-A*24:02 = test: IEDB peptide-MHC binding, purified MHC/competitive/fluorescence; ≥ and ≤ were set here for values at or beyond the usual limits of such assays; conditions: source organism: Zaire ebolavirus
HLA-B*08:01 [4] = test: as above; conditions: source organism: Zaire ebolavirus
HLA-B*15:01 [5] = test: as above; conditions: source organism: Zaire ebolavirus
HLA-A*02:01 [6] = test: as above; conditions: source organism: Zaire ebolavirus
HLA-B*07:02 [7] = test: as above; conditions: source organism: Zaire ebolavirus
HLA-B*08:01 [8] = test: IEDB peptide-MHC binding, purified MHC/competitive/fluorescence; filed as Kd, often an IC50 or EC50 that approximates it; ≥ and ≤ were set here for values at or beyond the usual limits of such assays; conditions: source organism: Yersinia pestis Nepal516
[9] = source organism: human gammaherpesvirus 4
[10] = source organism: Listeria monocytogenes serotype 4b str. H7858
[11] = source organism: Orthomarburgvirus marburgense
[12] = source organism: Entamoeba histolytica HM-1:IMSS
[13] = source organism: Vibrio cholerae V52
[14] = source organism: Salmonella enterica subsp. enterica serovar Typhi
[15] = source organism: Shigella flexneri 5 str. 8401
[16] = source organism: Escherichia coli O139:H28 str. E24377A
[17] = source organism: Yersinia pestis Nepal516
[18] = source organism: Escherichia coli E22

Kd (HLA-A*80:01; source organism: Mus musculus): 0.0195 µM
Kd (HLA-A*01:01; source organism: Mus musculus): ≥ 20 µM
Kd (HLA-A*29:02; source organism: Mus musculus): 0.0002 µM
Sequence: AFFAERLYY

Sequence: ATVKGMQSY
Kd (HLA-B*58:01; [9]): 4.38 µM

Sequence: FLMYPNNIF
Kd (HLA-C*03:03; [10]): 0.015 µM
Kd (HLA-C*05:01): 0.266 µM
Kd (HLA-C*12:03; [10]): 0.178 µM
Kd (HLA-B*15:02; [10]): 0.0057 µM

Sequence: GIADFIIFK
Kd (HLA-A*02:01 [1]; [11]): ≥ 20 µM
Kd (HLA-A*02:03; [11]): ≥ 20 µM
Kd (HLA-A*02:11; [11]): ≥ 20 µM
Kd (HLA-A*02:12; [11]): ≥ 20 µM
Kd (HLA-A*02:16; [11]): ≥ 20 µM
Kd (HLA-A*02:19; [11]): ≥ 20 µM
Kd (HLA-A*03:01; [11]): 0.188 µM
Kd (HLA-A*23:01; [11]): ≥ 20 µM
Kd (HLA-A*24:03; [11]): ≥ 20 µM
Kd (HLA-A*26:01; [11]): ≥ 20 µM
Kd (HLA-A*29:02; [11]): ≥ 20 µM
Kd (HLA-A*68:02; [11]): ≥ 20 µM
Kd (HLA-A*69:01; [11]): ≥ 20 µM
Kd (HLA-B*15:01 [2]; [11]): ≥ 20 µM
Kd (HLA-B*15:17; [11]): ≥ 20 µM
Kd (HLA-B*18:01; [11]): ≥ 20 µM
Kd (HLA-B*27:03; [11]): ≥ 20 µM
Kd (HLA-B*39:01; [11]): ≥ 20 µM
Kd (HLA-B*46:01; [11]): ≥ 20 µM
Kd (HLA-B*51:01; [11]): ≥ 20 µM
Kd (HLA-B*57:01; [11]): ≥ 20 µM

Sequence: HLWNHNQQM
Kd (HLA-B*15:02; source organism: Venezuelan equine encephalitis virus): 0.0499 µM

Sequence: IGKMNKHYK
Kd (HLA-A*02:01 [1]; [12]): ≥ 20 µM
Kd (HLA-A*02:03; [12]): ≥ 20 µM
Kd (HLA-A*02:11; [12]): ≥ 20 µM
Kd (HLA-A*02:12; [12]): ≥ 20 µM
Kd (HLA-A*02:16; [12]): ≥ 20 µM
Kd (HLA-A*02:19; [12]): ≥ 20 µM
Kd (HLA-A*03:01; [12]): ≥ 20 µM
Kd (HLA-A*24:03; [12]): ≥ 20 µM
Kd (HLA-A*26:01; [12]): ≥ 20 µM
Kd (HLA-A*29:02; [12]): ≥ 20 µM
Kd (HLA-A*31:01): 0.16 µM
Kd (HLA-A*68:02; [12]): ≥ 20 µM
Kd (HLA-A*69:01; [12]): ≥ 20 µM
Kd (HLA-B*15:01 [2]; [12]): ≥ 20 µM
Kd (HLA-B*15:17; [12]): ≥ 20 µM
Kd (HLA-B*18:01; [12]): ≥ 20 µM
Kd (HLA-B*27:03; [12]): ≥ 20 µM
Kd (HLA-B*39:01; [12]): ≥ 20 µM
Kd (HLA-B*46:01; [12]): ≥ 20 µM
Kd (HLA-B*51:01; [12]): ≥ 20 µM
Kd (HLA-B*57:01; [12]): ≥ 20 µM

Sequence: IGYRLGMGK
Kd (HLA-A*02:01 [1]; [13]): ≥ 20 µM
Kd (HLA-A*02:03; [13]): ≥ 20 µM
Kd (HLA-A*02:11; [13]): ≥ 20 µM
Kd (HLA-A*02:12; [13]): ≥ 20 µM
Kd (HLA-A*02:16; [13]): ≥ 20 µM
Kd (HLA-A*02:19; [13]): ≥ 20 µM
Kd (HLA-A*03:01; [13]): 0.0135 µM
Kd (HLA-A*23:01; [13]): ≥ 20 µM
Kd (HLA-A*24:03; [13]): ≥ 20 µM
Kd (HLA-A*26:01; [13]): ≥ 20 µM
Kd (HLA-A*29:02; [13]): ≥ 20 µM
Kd (HLA-A*68:02; [13]): ≥ 20 µM
Kd (HLA-A*69:01; [13]): ≥ 20 µM
Kd (HLA-B*15:01 [2]; [13]): ≥ 20 µM
Kd (HLA-B*15:17; [13]): ≥ 20 µM
Kd (HLA-B*18:01; [13]): ≥ 20 µM
Kd (HLA-B*27:03; [13]): ≥ 20 µM
Kd (HLA-B*39:01; [13]): ≥ 20 µM
Kd (HLA-B*46:01; [13]): ≥ 20 µM
Kd (HLA-B*51:01; [13]): ≥ 20 µM
Kd (HLA-B*57:01; [13]): ≥ 20 µM

Sequence: ILLARLFLY
Kd (HLA-A*80:01; [9]): 0.0033 µM
Kd (HLA-A*03:01; [9]): 2.06 µM

Sequence: ITLKVFAGY
Kd (HLA-A*03:01; [14]): 2.69 µM
Kd (HLA-A*26:01; [14]): 0.287 µM
Kd (HLA-B*58:01; [14]): 0.0116 µM

Sequence: KVHLTPAQL
Kd (HLA-C*15:02; [15]): ≥ 20 µM
Kd (HLA-B*07:02 [3]; [15]): 0.154 µM

Kd (HLA-B*07:02 [3]; [16]): 0.0974 µM
Kd (HLA-B*51:01; [16]): ≥ 20 µM
Sequence: LPRDASQIT

Kd (HLA-C*07:02; source organism: Homo sapiens): 0.238 µM
Kd (HLA-C*14:02): 0.246 µM
Kd (HLA-C*15:02; source organism: Homo sapiens): ≥ 20 µM
Kd (HLA-A*01:01; source organism: Homo sapiens): 1.08 µM
Kd (HLA-A*29:02; source organism: Homo sapiens): ≤ 0.0001 µM
Sequence: MLYPRVWPY

Sequence: MMQGTPYVY
Kd (HLA-B*15:02; source organism: Vibrio antiquarius): 0.0059 µM

Sequence: PVMNHKNKF
IC50 (HLA-A*24:02): 0.106 µM
IC50 (HLA-B*08:01 [4]): 11 µM
IC50 (HLA-B*15:01 [5]): ≥ 364 µM

Sequence: RTAKVKNEV
IC50 (HLA-A*02:01 [6]): 57.2 µM
IC50 (HLA-A*24:02): ≥ 75.3 µM
IC50 (HLA-B*07:02 [7]): 10.3 µM
IC50 (HLA-B*08:01 [4]): 56.8 µM

Sequence: SDMDYHKIL
IC50 (HLA-A*02:01 [6]): ≥ 241 µM
IC50 (HLA-A*24:02): ≥ 145 µM
IC50 (HLA-B*08:01 [4]): ≥ 177 µM

Sequence: SLFVRSAGQ
Kd (HLA-B*15:02; source organism: Burkholderia mallei JHU): ≥ 20 µM

Sequence: VVEKQSGLY
Kd (HLA-A*80:01; source organism: West Nile virus): 0.0008 µM

Sequence: YIYTRSFQM
Kd (HLA-C*07:02; [17]): 0.163 µM
Kd (HLA-A*02:01 [1]; [17]): 0.0004 µM
Kd (HLA-A*26:01; [17]): 0.593 µM
Kd (HLA-B*08:01 [8]): 0.0487 µM
Kd (HLA-B*15:01 [2]; [17]): 0.351 µM

Kd (HLA-C*03:03; source organism: Homo sapiens): 0.371 µM
Kd (HLA-C*12:03; source organism: Homo sapiens): 0.088 µM
Kd (HLA-C*15:02; source organism: Homo sapiens): 0.372 µM
Sequence: YMNGTMSQV

Kd (HLA-A*02:01 [1]; [18]): 0.0004 µM
Kd (HLA-A*02:11; [18]): ≥ 20 µM
Kd (HLA-A*02:12; [18]): ≥ 20 µM
Kd (HLA-A*02:16; [18]): ≤ 0.0001 µM
Kd (HLA-A*02:19; [18]): ≥ 20 µM
Kd (HLA-A*03:01; [18]): ≥ 20 µM
Kd (HLA-A*23:01; [18]): ≥ 20 µM
Kd (HLA-A*24:03; [18]): ≥ 20 µM
Kd (HLA-A*26:01; [18]): ≥ 20 µM
Kd (HLA-A*29:02; [18]): ≥ 20 µM
Kd (HLA-A*69:01; [18]): ≥ 20 µM
Kd (HLA-B*15:01 [2]; [18]): ≥ 20 µM
Kd (HLA-B*15:17; [18]): ≥ 20 µM
Kd (HLA-B*18:01; [18]): ≥ 20 µM
Kd (HLA-B*27:03; [18]): ≥ 20 µM
Kd (HLA-B*46:01; [18]): ≥ 20 µM
Kd (HLA-B*51:01; [18]): ≥ 20 µM
Kd (HLA-B*57:01; [18]): ≥ 20 µM
Sequence: YQTYVSPGA
